The supplement of paper PMC10065799, “High-throughput profiling of sequence recognition by tyrosine kinases and SH2 domains using bacterial peptide display” (eLife, 2023)

target: EPHB2 (UniProt P29323); assay: phosphorylation enrichment, bacterial display (enrichment ratio); higher = better substrate or ligand; peptides without Tyr show the background
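Further: 11-residue human phosphosite peptides and single-mutation variants displayed on the E. coli surface, counted by deep sequencing, each peptide's frequency after selection divided by its frequency in the unselected input library; frequency after pTyr selection over input frequency; kinase dosed for 20-30% of maximal phosphorylation in three min.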

EPHB2, sequence (P29323 whole entry, looked up): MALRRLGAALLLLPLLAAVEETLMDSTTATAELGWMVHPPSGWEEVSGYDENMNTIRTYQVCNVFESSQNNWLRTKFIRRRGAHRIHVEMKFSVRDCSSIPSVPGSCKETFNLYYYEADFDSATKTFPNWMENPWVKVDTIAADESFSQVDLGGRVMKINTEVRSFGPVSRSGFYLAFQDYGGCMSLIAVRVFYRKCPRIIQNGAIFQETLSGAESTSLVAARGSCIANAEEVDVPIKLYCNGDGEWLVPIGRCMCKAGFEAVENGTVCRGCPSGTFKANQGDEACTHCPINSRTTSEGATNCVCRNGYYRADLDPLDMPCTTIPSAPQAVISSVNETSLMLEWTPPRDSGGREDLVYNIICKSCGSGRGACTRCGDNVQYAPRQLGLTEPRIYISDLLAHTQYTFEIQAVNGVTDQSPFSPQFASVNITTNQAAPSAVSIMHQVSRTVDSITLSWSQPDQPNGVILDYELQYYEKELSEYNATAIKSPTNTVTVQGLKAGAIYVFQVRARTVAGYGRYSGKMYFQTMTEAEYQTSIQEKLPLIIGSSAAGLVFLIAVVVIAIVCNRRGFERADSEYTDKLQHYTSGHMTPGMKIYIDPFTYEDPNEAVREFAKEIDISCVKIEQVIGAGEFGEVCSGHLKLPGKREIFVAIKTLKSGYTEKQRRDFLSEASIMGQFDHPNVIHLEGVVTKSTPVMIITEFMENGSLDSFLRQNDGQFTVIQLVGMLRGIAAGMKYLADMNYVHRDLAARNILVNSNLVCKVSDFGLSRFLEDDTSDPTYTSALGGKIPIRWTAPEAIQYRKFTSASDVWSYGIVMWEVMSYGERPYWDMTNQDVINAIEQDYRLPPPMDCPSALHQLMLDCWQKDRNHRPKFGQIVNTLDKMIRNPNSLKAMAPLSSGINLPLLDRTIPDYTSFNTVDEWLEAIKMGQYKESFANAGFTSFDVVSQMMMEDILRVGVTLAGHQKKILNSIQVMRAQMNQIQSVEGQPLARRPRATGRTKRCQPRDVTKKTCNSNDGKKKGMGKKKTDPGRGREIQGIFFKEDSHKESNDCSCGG

Sequence	phosphorylation enrichment
RQNNSYTCFTA [SLC20A2_Y386_R382Q_YF]	0.658
SARHHYESLQT [BIN1_Y157]	0.374
EVGHVYLFLQP [ITGA2B_Y360_R358H]	0.679
SSRKEYFIGGG [GYPC_Y126]	0.317
RKKEEYKMALY [F8_Y1990]	0.387
VHLYAYDWISI [BEST1_Y227_G222V]	5.88
REVPVYIGEDS [SYNM_Y460]	0.547
HLQQSNLPRGT [TEX45_Y396_Y396N]	0.451
KEAALYPHLPP [SQSTM1_Y383]	0.373
KFLENYFDLKK [MMP3_Y41_YF]	0.751
NARGLYYKLHN [GATA2_Y376_C373R]	0.586
HSKGIYFVQLE [MGAT4B_Y262_Q257H_YF]	0.911
WASSSYRETPS [SORBS1_Y79_R74W]	0.353
NHQYDYTFDWT [CSNK1A1_Y294]	0.767
PAIERYVVVCK [RHO_Y136_L131P]	0.846
PFSNPYENSLI [EPOR_Y489_YF]	0.929
FSNKLYFQLEQ [PDPR_Y109_YF]	0.664

Sequence	phosphorylation enrichment
KVVNEYVTKGQ [MYH7_Y410_G407V]	0.451
DPHECYAKVFD [ALB_Y394]	0.591
MWGSDYVHLSR [MAP3K4_Y582_Q584H]	1.47
NKEPRYQEEPP [TJP2_Y479_D482E]	0.67
GYIISYREEEQ	0.599
EFGFRYELVQF [UGGT2_Y1289_Y1285F_YF]	0.585
MGGSLYFSFPD [HIKESHI_Y55_V54L_YF]	5.46
PFQGAYLEINK [MYO1B_Y967]	0.577
KFACSYTPVKA [FLNB_Y708_T703K_YF]	0.502
HNQDGYSYLSR [LDLR_Y845_P848L]	0.889
KRISCYEASFQ [PFKFB3_Y194_YF]	0.536
KCCCIYEKPRA [PPP1R11_Y64]	1.06
RAYRRYLLKQK [SCN2A_Y1919]	0.468
GDFFCYLAEVA [YWHAG_Y133_R132C_YF]	0.655
ARLEFCENEKK [IRS1_Y47_Y47C_YF]	0.575
QNTGDYFDLFG [PTPN11_Y62_YF]	20.4

target: FGFR1 (UniProt P11362); assay: as above
Sequence (P11362 whole entry, looked up): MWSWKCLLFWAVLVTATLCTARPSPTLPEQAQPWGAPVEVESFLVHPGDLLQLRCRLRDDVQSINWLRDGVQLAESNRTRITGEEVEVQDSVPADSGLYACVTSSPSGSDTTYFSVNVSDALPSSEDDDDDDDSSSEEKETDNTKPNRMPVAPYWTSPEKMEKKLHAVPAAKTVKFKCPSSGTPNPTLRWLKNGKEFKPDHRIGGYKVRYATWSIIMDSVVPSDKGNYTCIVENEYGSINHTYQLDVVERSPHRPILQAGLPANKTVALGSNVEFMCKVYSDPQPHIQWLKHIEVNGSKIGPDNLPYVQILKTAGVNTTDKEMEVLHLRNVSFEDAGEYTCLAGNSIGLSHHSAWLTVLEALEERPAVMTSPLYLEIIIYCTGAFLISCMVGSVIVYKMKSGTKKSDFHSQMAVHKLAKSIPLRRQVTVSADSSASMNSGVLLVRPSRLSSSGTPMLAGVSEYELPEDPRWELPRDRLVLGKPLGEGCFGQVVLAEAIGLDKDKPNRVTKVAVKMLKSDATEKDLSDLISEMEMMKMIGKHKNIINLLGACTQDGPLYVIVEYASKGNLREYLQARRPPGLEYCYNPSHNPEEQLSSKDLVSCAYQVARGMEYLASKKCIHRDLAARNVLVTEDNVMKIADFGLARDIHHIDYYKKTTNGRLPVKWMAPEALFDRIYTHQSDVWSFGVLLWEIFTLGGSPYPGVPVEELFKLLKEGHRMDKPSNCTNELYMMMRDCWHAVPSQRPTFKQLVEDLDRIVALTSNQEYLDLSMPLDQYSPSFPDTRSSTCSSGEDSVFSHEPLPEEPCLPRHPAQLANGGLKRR

Sequence	phosphorylation enrichment
RQNNSYTCFTA [SLC20A2_Y386_R382Q_YF]	0.663
SARHHYESLQT [BIN1_Y157]	0.445
EVGHVYLFLQP [ITGA2B_Y360_R358H]	0.512
SSRKEYFIGGG [GYPC_Y126]	0.532
RKKEEYKMALY [F8_Y1990]	0.58
VHLYAYDWISI [BEST1_Y227_G222V]	5.73
REVPVYIGEDS [SYNM_Y460]	0.661
HLQQSNLPRGT [TEX45_Y396_Y396N]	0.491
KEAALYPHLPP [SQSTM1_Y383]	0.459
KFLENYFDLKK [MMP3_Y41_YF]	2.51
NARGLYYKLHN [GATA2_Y376_C373R]	1.08
HSKGIYFVQLE [MGAT4B_Y262_Q257H_YF]	1.38
WASSSYRETPS [SORBS1_Y79_R74W]	0.438
NHQYDYTFDWT [CSNK1A1_Y294]	3.99
PAIERYVVVCK [RHO_Y136_L131P]	0.505
PFSNPYENSLI [EPOR_Y489_YF]	0.964
FSNKLYFQLEQ [PDPR_Y109_YF]	3.05

Sequence	phosphorylation enrichment
KVVNEYVTKGQ [MYH7_Y410_G407V]	0.431
DPHECYAKVFD [ALB_Y394]	0.506
MWGSDYVHLSR [MAP3K4_Y582_Q584H]	3.31
NKEPRYQEEPP [TJP2_Y479_D482E]	0.444
GYIISYREEEQ	0.532
EFGFRYELVQF [UGGT2_Y1289_Y1285F_YF]	0.477
MGGSLYFSFPD [HIKESHI_Y55_V54L_YF]	5.92
PFQGAYLEINK [MYO1B_Y967]	0.485
KFACSYTPVKA [FLNB_Y708_T703K_YF]	0.497
HNQDGYSYLSR [LDLR_Y845_P848L]	0.879
KRISCYEASFQ [PFKFB3_Y194_YF]	0.523
KCCCIYEKPRA [PPP1R11_Y64]	0.523
RAYRRYLLKQK [SCN2A_Y1919]	0.489
GDFFCYLAEVA [YWHAG_Y133_R132C_YF]	0.557
ARLEFCENEKK [IRS1_Y47_Y47C_YF]	0.581
QNTGDYFDLFG [PTPN11_Y62_YF]	26.8
